Measurements as given in article PMC5608031.

Columns and labels:
Assay type in all cases: biochemical, Homo sapiens
Settings in all cases: PAPS
[1] = substrate: Oc1cccc2ccccc12; assay: radiolabeled sulfonation assay, Km
purified protein [2] = substrate: O=c1cc(-c2ccc(O)cc2)oc2cc(O)cc(O)c12; assay: purified protein
purified protein [3] = substrate: CC(C)(c1ccc(O)cc1)c1ccc(O)cc1; assay: purified protein
purified protein [4] = substrate: O=c1c(-c2ccc(O)cc2)coc2cc(O)ccc12; assay: purified protein
purified protein [5] = substrate: O=c1c(-c2ccc(O)cc2)coc2cc(O)cc(O)c12; assay: purified protein
purified protein [6] = substrate: O=c1cc(-c2ccccc2)oc2cc(O)cc(O)c12; assay: purified protein
purified protein [7] = substrate: O=c1cc(-c2ccc(O)cc2)oc2ccc(O)cc12; assay: purified protein

B1: human cytosolic sulfotransferase 1C4 (hSULT1C4) (Homo sapiens) (protein)
chain: MALHDMEDFTFDGTKRLSVNYVKGILQPTDTCDIWDKIWNFQAKPDDLLISTYPKAGTTWTQEIVELIQNEGDVEKSKRAPTHQRFPFLEMKIPSLGSGLEQAHAMPSPRILKTHLPFHLLPPSLLEKNCKIIYVARNPKDNMVSYYHFQRMNKALPAPGTWEEYFETFLAGKVCWGSWHEHVKGWWEAKDKHRILYLFYEDMKKNPKHEIQKLAEFIGKKLDDKVLDKIVHYTSFDVMKQNPMANYSSIPAEIMDHSISPFMRKGAVGDWKKHFTVAQNERFDEDYKKKMTDTRLTFHFQF
In the case of B1, the Km [1] is reported as 1.1 ± 0.2 µM, the Km (purified protein [2]) is reported as 1.7 ± 1.0 µM and the Km (purified protein [3]) is reported as 32.8 ± 3.2 µM. The Km (purified protein [4]) was 10.5 ± 1.1 µM, the Km (purified protein [5]) was 3.3 ± 0.3 µM and the Km (purified protein [6]) was 0.9 ± 0.4 µM. The Km (purified protein [7]) was 10.1 ± 2.1 µM.
